Assay results from paper PMC9117670, “Structural basis for inhibition of the Cation-chloride cotransporter NKCC1 by the diuretic drug bumetanide” (Nature Communications, 2022).

Molecular target: the molecule itself
Assay: cryo-EM structure; single-particle cryo-EM with bumetanide; low [Cl-] buffer: 20 mM HEPES pH 7.4, 50 mM Na2SO4, 25 mM K2SO4, 5 mM NaCl, 0.06% digitonin, bumetanide to 500 uM

Row | Protein | stoichiometry N
1 | NKCC1iii (full-length human NKCC1 with K289N, A492E and L671C mutations) (natural protein, UniProt P55011 1-1212, looked up, Human Na-K-2Cl cotransporter NKCC1, full length, with K289N, A492E and L671C; MBP followed by a TEV site was fused immediately before the N-terminus and removed with TEV protease before size exclusion and cryo-EM; Residues 927-1021 are not defined in the model; also called Lys289Asn/Ala492Glu/Leu671Cys NKCC1 transporter; NKCCiii; source: HEK293S GnTI-/- cells (BacMam system), purified (amylose …)) MEPRPTAPSSGAPGLAGVGETPSAAALAAARVELPGTAVPSVPEDAAPASRDGGGVRDEGPAAAGDGLGRPLGPTPSQSRFQVDLVSENAGRAAAAAAAAAAAAAAAGAGAGAKQTPADGEASGESEPAKGSEEAKGRFRVNFVDPAASSSAEDSLSDAAGVGVDGPNVSFQNGGDTVLSEGSSLHSGGGGGSGHHQHYYYDTHTNTYYLRTFGHNTMDAVPRIDHYRHTAAQLGEKLLRPSLAELHDELEKEPFEDGFANGEESTPTRDAVVTYTAESKGVVKFGWINGVLVRCMLNIWGVMLFIRLSWIVGQAGIGLSVLVIMMATVVTTITGLSTSAIATNGFVRGGGAYYLISRSLGPEFGGAIGLIFAFANAVAVAMYVVGFAETVVELLKEHSILMIDEINDIRIIGAITVVILLGISVAGMEWEAKAQIVLLVILLLAIGDFVIGTFIPLESKKPKGFFGYKSEIFNENFGPDFREEETFFSVFEIFFPAATGILAGANISGDLADPQSAIPKGTLLAILITTLVYVGIAVSVGSCVVRDATGNVNDTIVTELTNCTSAACKLNFDFSSCESSPCSYGLMNNFQVMSMVSGFTPLISAGIFSATLSSALASLVSAPKIFQALCKDNIYPAFQMFAKGYGKNNEPLRGYILTFLIALGFILIAECNVIAPIISNFFLASYALINFSVFHASLAKSPGWRPAFKYYNMWISLLGAILCCIVMFVINWWAALLTYVIVLGLYIYVTYKKPDVNWGSSTQALTYLNALQHSIRLSGVEDHVKNFRPQCLVMTGAPNSRPALLHLVHDFTKNVGLMICGHVHMGPRRQAMKEMSIDQAKYQRWLIKNKMKAFYAPVHADDLREGAQYLMQAAGLGRMKPNTLVLGFKKDWLQADMRDVDMYINLFHDAFDIQYGVVVIRLKEGLDISHLQGQEELLSSQEKSPGTKDVVVSVEYSKKSDLDTSKPLSEKPITHKVEEEDGKTATQPLLKKESKGPIVPLNVADQKLLEASTQFQKKQGKNTIDVWWLFDDGGLTLLIPYLLTTKKKWKDCKIRVFIGGKINRIDHDRRAMATLLSKFRIDFSDIMVLGDINTKPKKENIIAFEEIIEPYRLHEDDKEQDIADKMKEDEPWRITDNELELYKTKTYRQIRLNELLKEHSSTANIIVMSLPVARKGAVSSALYMAWLEALSKDLPPILLVRGNHQSVLTFYS | 2
2 | NKCC1ii (full-length human NKCC1 with K289N and A492E mutations) (natural protein, UniProt P55011 1-1212, looked up, Human Na-K-2Cl cotransporter NKCC1, full length, with K289N and A492E; MBP followed by a TEV site was fused immediately before the N-terminus and removed with TEV protease before size exclusion and cryo-EM; also called NKCCii; source: HEK293S GnTI-/- cells (BacMam system), purified (amylose resin, TEV protease, Superose 6) in digitonin; not shown: MBP, N-terminal, cleaved) MEPRPTAPSSGAPGLAGVGETPSAAALAAARVELPGTAVPSVPEDAAPASRDGGGVRDEGPAAAGDGLGRPLGPTPSQSRFQVDLVSENAGRAAAAAAAAAAAAAAAGAGAGAKQTPADGEASGESEPAKGSEEAKGRFRVNFVDPAASSSAEDSLSDAAGVGVDGPNVSFQNGGDTVLSEGSSLHSGGGGGSGHHQHYYYDTHTNTYYLRTFGHNTMDAVPRIDHYRHTAAQLGEKLLRPSLAELHDELEKEPFEDGFANGEESTPTRDAVVTYTAESKGVVKFGWINGVLVRCMLNIWGVMLFIRLSWIVGQAGIGLSVLVIMMATVVTTITGLSTSAIATNGFVRGGGAYYLISRSLGPEFGGAIGLIFAFANAVAVAMYVVGFAETVVELLKEHSILMIDEINDIRIIGAITVVILLGISVAGMEWEAKAQIVLLVILLLAIGDFVIGTFIPLESKKPKGFFGYKSEIFNENFGPDFREEETFFSVFEIFFPAATGILAGANISGDLADPQSAIPKGTLLAILITTLVYVGIAVSVGSCVVRDATGNVNDTIVTELTNCTSAACKLNFDFSSCESSPCSYGLMNNFQVMSMVSGFTPLISAGIFSATLSSALASLVSAPKIFQALCKDNIYPAFQMFAKGYGKNNEPLRGYILTFLIALGFILIAELNVIAPIISNFFLASYALINFSVFHASLAKSPGWRPAFKYYNMWISLLGAILCCIVMFVINWWAALLTYVIVLGLYIYVTYKKPDVNWGSSTQALTYLNALQHSIRLSGVEDHVKNFRPQCLVMTGAPNSRPALLHLVHDFTKNVGLMICGHVHMGPRRQAMKEMSIDQAKYQRWLIKNKMKAFYAPVHADDLREGAQYLMQAAGLGRMKPNTLVLGFKKDWLQADMRDVDMYINLFHDAFDIQYGVVVIRLKEGLDISHLQGQEELLSSQEKSPGTKDVVVSVEYSKKSDLDTSKPLSEKPITHKVEEEDGKTATQPLLKKESKGPIVPLNVADQKLLEASTQFQKKQGKNTIDVWWLFDDGGLTLLIPYLLTTKKKWKDCKIRVFIGGKINRIDHDRRAMATLLSKFRIDFSDIMVLGDINTKPKKENIIAFEEIIEPYRLHEDDKEQDIADKMKEDEPWRITDNELELYKTKTYRQIRLNELLKEHSSTANIIVMSLPVARKGAVSSALYMAWLEALSKDLPPILLVRGNHQSVLTFYS | 2
